In patent US20230055408A1 (JIANGSU HENGRUI MEDICINE, published 2023):

T1: human CEA protein on the cell surface (human, UniProt P06731 35-685)
T1 construct: whole, on cells; also called CEACAM-5; CD66e
T1 sequence (looked up): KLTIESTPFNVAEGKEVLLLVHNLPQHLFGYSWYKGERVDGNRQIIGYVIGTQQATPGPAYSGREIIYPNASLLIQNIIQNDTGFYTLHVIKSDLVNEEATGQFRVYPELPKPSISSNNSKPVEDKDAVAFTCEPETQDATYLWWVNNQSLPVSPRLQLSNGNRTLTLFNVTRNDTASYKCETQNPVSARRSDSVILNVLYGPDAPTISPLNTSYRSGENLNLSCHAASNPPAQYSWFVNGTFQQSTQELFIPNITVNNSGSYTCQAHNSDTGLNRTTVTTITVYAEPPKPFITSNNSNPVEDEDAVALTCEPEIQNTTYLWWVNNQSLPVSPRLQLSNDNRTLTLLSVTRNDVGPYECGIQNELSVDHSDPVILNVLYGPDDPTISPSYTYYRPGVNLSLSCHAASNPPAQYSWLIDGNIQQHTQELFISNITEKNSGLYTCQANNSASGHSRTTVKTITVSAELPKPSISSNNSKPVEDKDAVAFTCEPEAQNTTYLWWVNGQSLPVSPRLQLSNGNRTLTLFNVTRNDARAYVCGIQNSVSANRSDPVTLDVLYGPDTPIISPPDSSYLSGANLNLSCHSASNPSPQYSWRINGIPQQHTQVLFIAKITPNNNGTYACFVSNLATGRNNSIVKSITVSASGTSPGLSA

T2: human CEACAM1 expressed on CHO cell surface (human, UniProt P13688 35-526)
T2 construct: also called CEACAM1-CHO
T2 sequence: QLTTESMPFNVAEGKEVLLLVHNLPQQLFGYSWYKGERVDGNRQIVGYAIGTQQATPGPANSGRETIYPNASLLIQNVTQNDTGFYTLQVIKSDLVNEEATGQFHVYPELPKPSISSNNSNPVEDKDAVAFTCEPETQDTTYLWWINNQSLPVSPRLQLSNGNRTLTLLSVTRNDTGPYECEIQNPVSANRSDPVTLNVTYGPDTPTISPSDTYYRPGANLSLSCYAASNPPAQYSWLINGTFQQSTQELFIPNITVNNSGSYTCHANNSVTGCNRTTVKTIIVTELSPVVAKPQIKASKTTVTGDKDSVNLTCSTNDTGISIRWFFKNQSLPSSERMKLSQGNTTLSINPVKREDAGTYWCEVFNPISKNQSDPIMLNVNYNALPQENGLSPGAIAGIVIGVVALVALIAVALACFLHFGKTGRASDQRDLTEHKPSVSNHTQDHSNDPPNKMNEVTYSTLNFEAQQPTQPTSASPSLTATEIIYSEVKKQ

T3: monkey CEA expressed on CHO cell surface (cynomolgus monkey)
T3 construct: also called cynoCEA-CHO; monkey CEA proteins on the cell surface
T3 chain: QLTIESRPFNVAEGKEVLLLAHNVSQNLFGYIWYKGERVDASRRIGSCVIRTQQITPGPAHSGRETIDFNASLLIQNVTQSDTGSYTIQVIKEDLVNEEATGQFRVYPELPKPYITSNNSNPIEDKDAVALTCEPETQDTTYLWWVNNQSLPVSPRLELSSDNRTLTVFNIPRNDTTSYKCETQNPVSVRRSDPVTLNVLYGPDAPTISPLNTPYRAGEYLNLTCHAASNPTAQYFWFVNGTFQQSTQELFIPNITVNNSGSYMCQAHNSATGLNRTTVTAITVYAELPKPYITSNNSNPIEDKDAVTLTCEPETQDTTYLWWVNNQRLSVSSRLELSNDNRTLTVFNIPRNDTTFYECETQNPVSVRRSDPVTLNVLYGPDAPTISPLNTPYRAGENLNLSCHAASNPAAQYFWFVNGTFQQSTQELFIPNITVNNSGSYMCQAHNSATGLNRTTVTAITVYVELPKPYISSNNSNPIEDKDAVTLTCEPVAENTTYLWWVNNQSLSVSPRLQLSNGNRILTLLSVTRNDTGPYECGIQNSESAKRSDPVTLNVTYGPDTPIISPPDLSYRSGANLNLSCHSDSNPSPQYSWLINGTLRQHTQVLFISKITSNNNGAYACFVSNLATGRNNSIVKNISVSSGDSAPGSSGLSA

T4: human soluble CEA (human, UniProt P06731 35-685, limits assumed)
T4 construct: also called sCEA
T4 sequence (looked up): T1 sequence (looked up)

B1: Hu103-32 (antibody, human IgG1, lambda, V domains shown)
VH: EVQLVQSGSELKKPGASVKVSCKASGYTFTTYGVIWVRQAPGQGLEWMGWINTYSGVPTYASDFKGRFVFSLDTSVSTAYLQISSLKAEDTAVYYCARKKTLTTVTPWFAYWGQGTLVTVSS
VL: ELVLTQSPSASASLGASVKLTCTLSSQHSTYTIEWYQQQPEKGPRYVMELKKDGSHSTGEGIPDRFSGSSSGAERYLTISSLQSEDEADYYCGVGNTIKEQFVYVFGGGTKLTVLG
notes: Humanized IgG1/lambda; h103VH4 + h103VL8
B2: Hu67-14-2-A (DAR 6.41) (antibody, human IgG1, kappa, V domains shown)
VH: EVQLVQSGAEVKKPGESLKISCKGSGYSFTDYHMNWVKQMPGKGLEWMGDINPDIGGTSYNQNFKGKVTISVDKSISTAYLQWSSLKASDTAMYYCARWDFDSFANWGQGTLVTVSS
VL: DIQMTQSPSSLSASVGDRVTITCRASESVSIIGTNLIHWYQQKPGKAPKLLIYHASNLETGVPSRFSGSGSGTDFTLTISSLQPEDFATYYCLQSRKIPYTFGGGTKVEIKR
modifications: see heavy chain; linker-toxin 2-A coupled to cysteine thiols of the TCEP-reduced antibody; mean DAR 6.41 per antibody
B3: Hu67-14-2-A (DAR 4.28) (antibody, human IgG1, kappa, V domains shown)
VH: B2 VH
VL: B2 VL
modifications: see heavy chain; linker-toxin 2-A coupled to cysteine thiols of the TCEP-reduced antibody; mean DAR 4.28 per antibody
B4: Hu63-13-2-A (DAR 3.97) (antibody, human IgG1, kappa, V domains shown)
VH: EVQLVQSGAEVKKPGASVKVSCKASGYTFTDFYMNWVRQAPGQGLEWMGDIFPKSGNTDYNRKFKDRVTMTRDTSTSTVYMELSSLRSEDTAVYYCARSGYGNYVFDYWGQGTLVTVSS
VL: DIQMTQSPSSLSASVGDRVTITCRTSQDINIYLNWYQQKPGKAPKLLIYYRSGLLSGVPSRFSGSGSGTDFTLTISSLQPEDFATYYCQQGNTLPPTFGGGTKVEIKR
modifications: see heavy chain; linker-toxin 2-A coupled to cysteine thiols of the TCEP-reduced antibody; mean DAR 3.97 per antibody
B5: Hu63-13-2-A (DAR 6.29) (antibody, human IgG1, kappa, V domains shown)
VH: B4 VH
VL: B4 VL
modifications: see heavy chain; linker-toxin 2-A coupled to cysteine thiols of the TCEP-reduced antibody; mean DAR 6.29 per antibody
B6: Hu47-14-2-A (DAR 6.6) (antibody, human IgG1, kappa, V domains shown)
VH: EVQLVQSGSELKKPGASVKVSCKASGYTFTTYGMSWVKQAPGQGLKWMGWINTYSGVPTYASDFKGRFVFSLDTSVSTAYLQISSLKAEDTAVYYCARRGNYGRWDFDVWGQGTTVTVSS
VL: EIVLTQSPDFQSVTPKEKVTITCSVSSTISSSNLHWYQQKPDQSPKPLIYGTSNLASGVPSRFSGSGSGTDYTLTINSLEAEDAATYYCQQWSIYPLTFGQGTKLEIKR
modifications: see heavy chain; linker-toxin 2-A coupled to cysteine thiols of the TCEP-reduced antibody; mean DAR 6.6 per antibody
B7: Hu103-32-2-A (DAR 6.94) (antibody, human IgG1, lambda, V domains shown)
VH: B1 VH
VL: B1 VL
modifications: see heavy chain; linker-toxin 2-A coupled to cysteine thiols of the TCEP-reduced antibody; mean DAR 6.94 per antibody
B8: Hu103-32-2-A (DAR 4.8) (antibody, human IgG1, lambda, V domains shown)
VH: B1 VH
VL: B1 VL
modifications: see heavy chain; linker-toxin 2-A coupled to cysteine thiols of the TCEP-reduced antibody; mean DAR 4.8 per antibody
B9: Hu67-14 (antibody, human IgG1, kappa, V domains shown)
VH: B2 VH
VL: B2 VL
notes: Humanized IgG1/kappa; h67VH3 + h67VL4
B10: antibody in SAR-408701 (antibody, human IgG1, kappa, V domains shown)
VH: EVQLQESGPGLVKPGGSLSLSCAASGFVFSSYDMSWVRQTPERGLEWVAYISSGGGITYAPSTVKGRFTVSRDNAKNTLYLQMNSLTSEDTAVYYCAAHYFGSSGPFAYWGQGTLVTVSS
VL: DIQMTQSPASLSASVGDRVTITCRASENIFSYLAWYQQKPGKSPKLLVYNTRTLAEGVPSRFSGSGSGTDFSLTISSLQPEDFATYYCQHHYGTPFTFGSGTKLEIKR
notes: Positive control antibody; also called Sanofi

The binders below were run against T1, human CEA protein on the cell surface (assay: FACS, MKN45 cells).
Protocol: (§1) In order to detect the binding of the antibody to the CEA protein on the cell surface, the binding activity of the antibody was determined by FACS using cells expressing CEA on the cell surface. Cells were harvested and centrifuged at 400 g at 4° C. for 5 min. Pre-cooled PBS containing FBS at final concentration 10% was added, and the mixture was centrifuged at 400 g at 4° C. for 5 min; the procedures were repeated twice. The cells were seeded into a 96-well plate at 10⁵ cells/well, and 100 μL of gradient diluted antibody solution was added to each well. The plate was incubated at 4° C. for 60 min and centrifuged, and the supernatant was removed. 250 μL of pre-cooled PBS containing FBS at final concentration 10% was added to each well to resuspend the cells, and the suspension was centrifuged at 400 g at 4° C. for 5 min, followed by the removal of the supernatant; the procedures were repeated twice. 50 μL of 1:200 diluted secondary antibody Alexa Fluor@488 goat anti-human IgG (H+L) (Lifetechologies, Cat #A11013) was added. […] 250 μL of pre-cooled PBS containing FBS at final concentration 10% was added to each cell to resuspend the cells, and the suspension was centrifuged at 400 g at 4° C. for 5 min; the procedures were repeated twice. 100 μL of pre-cooled PBS was added to each well to resuspend the cells. The plate was analyzed by a flow cytometer (BD, FACSverse) for fluorescence signal values.

Binder | EC50
B1 | 1.79 nM

These binders were tested against T1, human CEA protein on the cell surface (assay: cell-based or functional assay).

Binder | IC50 of inhibition of cell proliferation, LS174T (with moderate CEA expression) | IC50 of inhibition of cell proliferation, MKN45 (with high CEA expression)
B2 | 9.24 nM | 3.33 nM
B3 | 15.6 nM | 9.39 nM
B4 | 19.8 nM | 34 nM
B5 | 13.1 nM | 3.93 nM
B6 | 10.3 nM | 6.58 nM
B7 | 2.37 nM | 3 nM
B8 | 3.08 nM | 2.86 nM

These binders were tested against T2, human CEACAM1 expressed on CHO cell … (assay: FACS, CEACAM1-CHO cells).

Binder | binding result
B9 | no binding
B10 | no binding
B1 | no binding

Biological target: T3, monkey CEA expressed on CHO cell surface
Assay: FACS, cynoCEA-CHO cells
Protocol: as §1

Binder | EC50
B9 | 2.89 nM
B10 | 17.3 nM

These binders were tested against T4, human soluble CEA (assay: SPR (Biacore T200), antibody captured, soluble CEA as analyte, 1:1 Langmuir).
Protocol: The affinity of a test humanized antibody for human and monkey soluble CEA was determined using a Biacore (GE, T200) instrument. According to the method in the instructions of a human antibody capture kit (GE, Cat #BR-1008-39), the human antibody capture antibody was covalently conjugated to a biosensor chip CM5 (GE, Cat #BR-1005-30) of the Biacore instrument to affinity-capture a certain amount of the test antibody, then a series of concentration gradients of soluble CEA antigens were allow to flow through the surface of the chip, and reaction signals were detected in real time using Biacore, so that an association and dissociation curve was obtained. After each cycle of dissociation was completed, the biochip was washed and regenerated with a regeneration solution prepared in the human antibody capture kit. The data obtained from the experiment were fitted with the (1:1) Langmuir model using BIAevaluation version 4.1 software to obtain affinity values.

Binder | Kd
B9 | 228 nM
B1 | 31.1 nM
